Read-outs that look alike come from different tables or passages of the source.
Experiments:
[1] = target: T1, human PVRIG expressed on cells (human, UniProt Q6DKI7 1-326); test: cell-based or functional assay
T1 sequence (looked up): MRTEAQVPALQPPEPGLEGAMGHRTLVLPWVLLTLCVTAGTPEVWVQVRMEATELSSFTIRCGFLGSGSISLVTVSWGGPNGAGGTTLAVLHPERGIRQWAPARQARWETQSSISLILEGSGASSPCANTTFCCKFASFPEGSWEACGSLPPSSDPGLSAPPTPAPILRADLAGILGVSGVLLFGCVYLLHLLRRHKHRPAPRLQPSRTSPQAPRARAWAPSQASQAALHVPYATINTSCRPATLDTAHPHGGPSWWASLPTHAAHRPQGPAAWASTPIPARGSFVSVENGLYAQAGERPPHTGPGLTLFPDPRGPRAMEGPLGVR

[2] = target: T1, human PVRIG expressed on cells; test: cell-based or functional assay; remark: listed apart in the source

B1: Tab5 (antibody, V domains shown)
VH: EVQLVESGGGVVKPGGSLRLSCAASGFTFGTSSMNWVRQAPGKGLEWVAVISFDGTEIHYADSVKGRFTISRDNSKSTVFLQMNSLRPDDTALYYCAKGSGNIYFYSGMDVWGQGTTVTVSS
VL: DIQMTQSPSTLSASVGDRVTITCRAGQSISGWLAWFQQKPGKAPNLLIYETSTLESGVPSRFSGSGSGTEYTLTISSLQPDDFATYYCQQYYSYPLTFGQGTKVEIKR
Question: For B1, which “PVRIG reporter gene cell activity EC50” value [1] is on record?
Answer: 1.38 nM

Question: And the “PVRIG reporter gene cell activity EC50” value [2]?
Answer: 0.74 nM

— patent EP4681729A1 (Shanghai Mabgen Biotech Ltd., dated 2026)
